# Molecular target: human melanocortin 4 receptor (MC4R) (human) (UniProt P32245)
# Assay: radioligand binding
# Chain of UniProt P32245 (P32245 whole entry): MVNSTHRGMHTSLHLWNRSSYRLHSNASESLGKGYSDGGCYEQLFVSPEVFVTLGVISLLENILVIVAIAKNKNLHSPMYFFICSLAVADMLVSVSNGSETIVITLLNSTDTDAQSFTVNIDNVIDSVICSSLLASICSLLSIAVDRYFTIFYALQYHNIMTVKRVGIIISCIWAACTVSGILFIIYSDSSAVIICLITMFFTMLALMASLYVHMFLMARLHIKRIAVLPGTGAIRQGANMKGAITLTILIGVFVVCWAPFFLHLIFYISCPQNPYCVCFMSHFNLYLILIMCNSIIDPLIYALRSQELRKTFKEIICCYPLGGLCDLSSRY
substance,measurement,value
"[^125I]-[Nle^4, DPhe^7]-α-MSH (peptide)",Kd,100 pM
